# Assay results published in article PMC5353646, “Allosteric modulation of peroxisomal membrane protein recognition by farnesylation of the peroxisomal import receptor PEX19” (Nature Communications, 2017).
# Positions count from the first letter of the chain named. Names may count otherwise. “Also recorded” adds a separate entry of the source.
# T1: farnesylated PEX19 CTD (Homo sapiens, UniProt P40855)
# T1 construct: we studied the human PEX19 CTD (residues 161–299) that includes the native C-terminus; hexahistidine (TEV-cleavable) (cleaved yes); made in house; host or cells: Escherichia coli BL21 (DE3); farnesylated in vitro with recombinant S. cerevisiae farnesyl transferase
# T1 sequence (P40855 161-299): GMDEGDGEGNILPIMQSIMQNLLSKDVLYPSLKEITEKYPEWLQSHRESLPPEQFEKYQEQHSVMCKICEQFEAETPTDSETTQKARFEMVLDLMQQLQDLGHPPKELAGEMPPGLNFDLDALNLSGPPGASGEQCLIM
# B1: PEX19 I195K: full-length PEX19 variant I195K (protein, UniProt P40855 1-299, looked up, variant I195K)
# chain: MAAAEEGCSVGAEADRELEELLESALDDFDKAKPSPAPPSTTTAPDASGPQKRSPGDTAKDALFASQEKFFQELFDSELASQATAEFEKAMKELAEEEPHLVEQFQKLSEAAGRVGSDMTSQQEFTSCLKETLSGLAKNATDLQNSSMSEEELTKAMEGLGMDEGDGEGNILPIMQSIMQNLLSKDVLYPSLKEKTEKYPEWLQSHRESLPPEQFEKYQEQHSVMCKICEQFEAETPTDSETTQKARFEMVLDLMQQLQDLGHPPKELAGEMPPGLNFDLDALNLSGPPGASGEQCLIM
# modifications: full-length
# B2: PEX19 P273F/P274F: full-length PEX19 with two lid prolines replaced by phenylalanine (protein, UniProt P40855 1-299, looked up, variant P273F P274F)
# chain: B1 chain with K195I, P273F, P274F
# modifications: full-length
# notes: full-length PEX19 with two lid prolines replaced by phenylalanine
# B3: PEX19 CTD: human PEX19 C-terminal domain (residues 161–299) (protein)
# chain: T1 sequence (P40855 161-299)
# modifications: left off: His6, end not stated, cleaved
# B4: M179R farn: farnesylated PEX19 CTD variant M179R (protein, UniProt P40855 161-299, looked up, variant M179R)
# chain: T1 sequence (P40855 161-299) with M19R
# modifications: C-terminal domain farnesylated
# B5: I195K farn: farnesylated PEX19 CTD variant I195K (protein, UniProt P40855 161-299, looked up, variant I195K)
# chain: T1 sequence (P40855 161-299) with I35K
# modifications: C-terminal domain farnesylated
# B6: M255R farn: farnesylated PEX19 CTD variant M255R (protein, UniProt P40855 161-299, looked up, variant M255R)
# chain: T1 sequence (P40855 161-299) with M95R
# modifications: C-terminal domain farnesylated
# B7: M179R: PEX19 CTD variant M179R (helix α1) (protein)
# chain: T1 sequence (P40855 161-299) with M19R
# modifications: left off: His6, end not stated, cleaved
# B8: I195K: PEX19 CTD variant I195K (helix α2) (protein)
# chain: T1 sequence (P40855 161-299) with I35K
# modifications: farnesyl group on Cys296 (CaaX box); left off: His6, end not stated, cleaved
# B9: PEX19 CTD farnesylated: human PEX19 CTD (residues 161–299) farnesylated in vitro (protein)
# chain: T1 sequence (P40855 161-299)
# modifications: farnesyl group on Cys296 (CaaX box); left off: His6, end not stated, cleaved
# notes: human PEX19 CTD (residues 161–299) farnesylated in vitro
# Legend:
# farnesylated PEX19 CTD = target: T1, farnesylated PEX19 CTD; test: NMR titration of farnesylated PEX19 CTD with PMP peptides; assay type: binding; details: 1H,15N HSQC, 298 K, ALDP at 5 and 10 molar ratio with 100 μM PEX19 CTD, PEX13 at 1:1.5 and 1:0.5 with 50 μM
# [1] = tested on: PEX19-deficient human fibroblasts (ΔPEX19 T); test: Functional complementation of PEX19-deficient fibroblasts (peroxisomal protein import); assay type: cell-based; details: full-length PEX19 variants, 72 h after transfection
# Description: A bicistronic expression plasmid coding for eGFP-PTS1 and non-tagged PEX14 (pMF1220)[43] was kindly provided by Marc Fransen (Leuven, Belgium). pIRES2-HsPEX19-eGFP-PTS1 was constructed by replacing the open reading frame of PEX14 (BglII/SalI) with a DNA-cassette encoding the full-length open reading frame of human PEX19 as derived from BamHI/SalI digestion of pAH05 (ref. [44]). Single point mutations were introduced into the PEX19 sequence by Quickchange XL Site-directed Mutagenesis kit (Stratagene) using primer pairs (Supplementary Table 1). The bicistronic expression vectors coding for PEX19 variants and eGFP-PTS1 were transfected into the human cell-line ΔPEX19 T which was derived from PEX19-deficient Zellweger patient fibroblasts. ΔPEX19 T cells, characterized by a defect in peroxisome biogenesis were routinely authenticated by functional complementation assays as described below and checked for mycoplasma contamination using Venor GeM Advance Mycoplasm Detection Kit (Minerva Biolabs). The efficiency of transfection according to the Amaxa Cell Line Nucleofector Kit R protocol (Lonza Cologne AG) was always around 90%. After 72 h of transfection, cells were subjected to fluorescence and immunofluorescence microscopy using polyclonal antiserum against human PEX14 (ref. [45]) (1:400 diluted) or monoclonal antibodies against human PEX19 (BD Biosciences, MA5-17266 Thermo Scientific; 1:400 diluted). Statistical analysis was carried out from three independent transfections of each pIRES-PEX19-eGFP-PTS1 expression plasmid. Based on the appearance of eGFP-PTS1 fluorescence pattern, about 100 cells of each experiment were visually categorized into three classes, (i) full complementation of peroxisomal import as visualized by punctuate staining pattern, (ii) partial complementation as indicated by diffuse cytosolic staining with few dots, (iii) no complementation resulting in only cytosolic staining. All micrographs were recorded on a Zeiss Axioplan 2 microscope with a Zeiss Plan-Apochromat × 63/1.4 oil objective and an Axiocam MR digital camera, and were processed with AxioVision 4.6 software (Zeiss, Jena, Germany). The steady-state level of PEX19 expression was assessed by immunoblot analysis, using monoclonal mouse antibodies against HsPEX19 (BD Biosciences, MA5-17266; 1:1,000 diluted) (Supplementary Fig. 9).
# [2] = Hydrophobic interaction chromatography; assay type: physicochemical; details: Butyl Sepharose FF, linear decreasing (NH4)2SO4 650–0 mM, 20 ml, 280 nm; for elution volume after start of the gradient: 20 mM potassium phosphate, pH 6.5, 50 mM NaCl, 500 μg protein; for ΔV, difference in elution volume between farnesylated and non-farnesylated protein: pH 6.5
# Experimental: Purified PEX19 CTD and variants were adjusted to a buffer containing 650 mM (NH4)2SO4 and 500 μg protein was subjected to equilibrated Butyl Sepharose FF column (20 mM potassium phosphate, pH 6.5, 50 mM NaCl and 650 mM (NH4)2SO4). After washing, bound protein was eluted with linear decreasing (NH4)2SO4 concentrations (650–0 mM (NH4)2SO4, 20 ml). Eluted proteins were detected using 280 nm absorption. The binding strength is indicated by the elution volume and correlates with protein hydrophobicity.
# [3] = 15N NMR relaxation, tumbling correlation time; assay type: physicochemical; details: for tumbling correlation time τc: 15N R2/R1 ratio, 750 MHz, 298 K, PEX19 CTD residues 161–299; for oligomeric state in solution: from τc, 15N NMR relaxation
# Description: NMR spectra were acquired at 298 K on a Bruker Avance III 600-MHz spectrometer with a TCI cryo-probe head, an Avance III 750-MHz spectrometer with a TXI probe head, or an Avance 900 instrument with a TXI cryo-probe head. Spectra were processed using NMRPipe[31] and analysed with Sparky[32]. Backbone assignment was done semi-automatically with MARS[33]. Backbone and side chain assignments were obtained from HNCA, HNCACB, CBCA(CO)NH, H(C)CH-TOCSY and (H)CCH-TOCSY spectra. ^13C- and ^15N- edited NOESY spectra with a mixing time of 70 ms were recorded to derive distance restraints. For NOEs between PEX19 and the farnesyl group, isotope-edited and filtered 3D NOESY spectra (70 and 100 ms mixing times) were acquired using specific isotope-labelled samples. ^15N R1, R2 relaxation rates and {^1H}-^15N heteronuclear NOEs were recorded at an Avance III 750 MHz spectrometer. Local correlation times were derived from the ^15N R2/R1 ratio[35]. For determination of solvent paramagnetic relaxation enhancement rates, gadolinium diethylene-triamine-penta-acetic-acid bismethylamide (Gd(DTPA-BMA)) was titrated to the protein samples[36][37][38]. Saturation recovery ^1H,^15N HSQC experiments with recovery times from 0.01 to 3 s were recorded at concentrations of 0, 1, 2, 3, 5, 7 and 10 mM Gd(DTPA-BMA). Peak intensities were fitted to an exponential recovery function according to equation I(τ)=I0−Aexp(−R1τ), where τ is the recovery delay, I(τ) is the peak intensity measured for the recovery delay τ, I0 is the maximum peak intensity, R1 is the longitudinal proton relaxation rate and A is the signal amplitude. To obtain the sPRE value, the proton R1 rates were collected for all measured concentrations of Gd(DTPA-BMA) cpara and a linear regression for the equation R1 (cpara)=msPRE cpara+ [drawing 1] was performed, where R1 (cpara) is the proton R1 measured at the concentration cpara of the paramagnetic compound, the slope msPRE corresponds to the sPRE and [drawing 2] is the fitted proton R1 in the absence of the paramagnetic compound[36]. For NMR titrations an ALDP peptide (sequence: AAKAGMNRVFLQRLL, residues 62–76 of human ALDP) was dissolved to a concentration of 5 mM in NMR buffer and added to ^15N-labelled PEX19 CTD with and without farnesylation in the same buffer up to a protein-peptide molar ratio of 1:10.
molecule,measurement,setting,value
"HFTKVFSAFALVRTIR [PEX13 peptide, peptide derived from the PMP PEX13]",NMR chemical shift perturbations / line broadening of farnesylated PEX19 CTD,farnesylated PEX19 CTD,severe line broadening
same,NMR chemical shift perturbations / line broadening of farnesylated PEX19 CTD,farnesylated PEX19 CTD; listed as PEX13,"even stronger NMR chemical shift perturbation changes to helix α1, and significant line broadening in the lid region"
B1,functional complementation (in words),[1],impaired although less strongly
same,cells showing restored peroxisomal protein transport (functional complementation),"[1]; at least 100 cells in three independent transfections, series of Fig. 3c",23%
B2,cells displaying import-competent peroxisomes (complementation rate),"[1]; 100 cells each of three independent transfections, series of Fig. 5d",20%
B3,elution volume after start of the gradient,[2],9.66 mL
same,"ΔV, difference in elution volume between farnesylated and non-farnesylated protein",[2],5.08 mL
same,tumbling correlation time τc,[3],11.4 ns
same,oligomeric state in solution,[3],monomeric in solution
B4,elution volume after start of the gradient,[2],11.26 mL
B5,elution volume after start of the gradient,[2],16.41 mL
B6,elution volume after start of the gradient,[2],17.9 mL
B7,functional complementation (in words),[1],not capable of rescuing the ΔPEX19 phenotype; also recorded: cannot restore peroxisomal biogenesis
same,elution volume after start of the gradient,[2],4.60 mL
B8,elution volume after start of the gradient,[2],8.40 mL
same,"ΔV, difference in elution volume between farnesylated and non-farnesylated protein",[2],8.01 mL
B9,elution volume after start of the gradient,[2],14.74 mL
same,tumbling correlation time τc,[3],10.5 ns
same,oligomeric state in solution,[3],monomeric in solution
